The values that follow come from US20120253008A1 (Ablynx, published 2012).

Experiment [1] has as its target T1, human serum albumin (human, UniProt P02768 25-609).
T1 construct: also called HSA
Kind of experiment: phage ELISA, 5-fold phage dilutions on coated HSA, anti-M13 detection, near-infrared fluorescence. As for the experimental part:
5-fold serial dilutions of phage clones (starting from ˜5×10¹¹ phage) were added to 96-well Nunc Maxisorp plates coated with human serum albumin (2 μg/ml in PBS, overnight at 4° C.; plates were blocked with Superblock T20 (Pierce) for 1 h at room temperature). […] The amount of IRDye bound was measured on Odyssey (LI-COR Biosciences). The dilution of phage was plotted against measured near-infrared fluorescence intensity (FIG. 2).
Background: ELISA stands for enzyme-linked immunosorbent assay.

The target in experiment [2] is T2, cynomolgus monkey serum albumin (cynomolgus monkey, UniProt A2V9Z4 25-608).
T2 construct: amine-coupled to a CM5 chip; also called CSA; cynoSA
Put plainly: SPR, BIAcore 3000, CSA on CM5 chip. As to the method:
The binding was determined in BIAcore™ 3000, by injecting concentration series of the fusion proteins ranging from 2 μM to 200 nM on a CM5 chip coated with ˜3000 RU HSA or CSA. Coating of the chip (CM5) was performed by amine coupling using NHS/EDC for activation and ethanolamine for deactivation (Biacore amine coupling kit). HBS-EP was used as flow buffer at a rate of […]. 90 μl of sample was injected for 120 s.

Experiment [3] has as its target T1, human serum albumin. Put plainly: solution binding competition ELISA: phage pre-incubated with 1 µM HSA, captured on coated HSA. As for the experimental part:
A competition ELISA was performed to determine the relative binding affinity for the selected phage clones. 96-well Nunc Maxisorp plates were coated with 2 μg/ml HSA in coating buffer at 4° C. Plates were blocked with SuperblockT20 (Pierce) for 1 h at room temperature. The microtiter plates were washed with wash buffer (PBS, 0.05% Tween 20).
(§1) Unbound phage was captured by transferring 100 μl of the well mixture to the HSA coated Maxisorp plate and incubating at room temperature for 30 minutes. The plate with captured phage was washed with PBS-0.05% Tween 20 five times. Bound phages were detected with anti-M13 and goat-anti mouse IRDye conjugate. The amount of IRDye bound was measured on Odyssey (LI-COR Biosciences). The ratio of phage binding was calculated by the following equation: fluorescence signal of well with competitor/fluorescence signal of well with no competitor (Table III).

For experiment [4], the target named is T1, human serum albumin. Kind of experiment: phage competition ELISA: phage pre-incubated with 2 µM HSA, captured on coated HSA. As to the method:
as §1
After respectively three and four selection rounds, monoclonal phage were screened for binding on HSA, in the manner described in Example 2. Clones that bind to HSA (FIGS. 7A to 7C and Table V) were screened in phage competition ELISA, in the manner described in Example 5. The ratio of phage binding was calculated by the following equation: fluorescence signal of well with 2 μM competitor/fluorescence signal of well with no competitor (Table VI).

A further experiment has as its target T3, von Willebrand factor (human, UniProt P04275 764-2813).
T3 construct: vWF of the human plasma in which the compounds were diluted; multimeric; also called vWF; VWF
Kind of experiment: inhibition ELISA: ristocetin-induced binding of plasma vWF to fixed human platelets (glycoprotein Ib), bound vWF detected with anti-VWF-HRP.

For experiment [5], the target named is T1, human serum albumin. Put plainly: SPR, Biacore 3000, HSA on CM5 chip, pH5 against pH7. As for the experimental part:
(§2) In brief, HSA and cynoSA were amine-coupled to a separate CM5 sensor chip at a density of respectively 1800RU and 1900RU. […] The three buffers used contained 50 mM phosphate, 150 mM NaCl and 0.005% surfactant P and were adjusted to either pH5, pH7 or pH8. Samples were injected at a flow-rate of 45 μL/min, association and dissociation were monitored during 120 sec and 300 sec. Binding curves were subsequently used to calculate the KD, association—and dissociation-rate constants with the BiaEvaluation software.
(In general: Surface plasmon resonance follows binding to a sensor surface in real time, without labels.)

Experiment [6] has as its target T2, cynomolgus monkey serum albumin. Kind of experiment: SPR, Biacore 3000, cynoSA on CM5 chip, pH5 against pH7. As to the method:
as §2

Experiment [7] addresses T1, human serum albumin. Put plainly: SPR, BIAcore 3000, HSA on CM5 chip. As to the method:
For this purpose, the fusion proteins were expressed in E. coli TG1 cells. […] Coating of the chip (CM5) was performed by amine coupling using NHS/EDC for activation and ethanolamine for deactivation (Biacore amine coupling kit). HBS-EP was used as flow buffer at a rate of 10 μl min-1. 20 μl of sample was injected for 120 s.

Experiment [8] has as its target T1, human serum albumin. Kind of experiment: X-ray co-crystal structure and in silico modelling.
Method: The crystal structure was determined as follows: the purified proteins were used in crystallization trials employing both, a standard screen of approximately 1200 different conditions, as well as crystallization conditions identified using literature data. […] These conditions were also refined by systematically varying pH or precipitant concentrations. Crystals were obtained via the method of co-crystallization.
Crystals have been flash-frozen and measured at a temperature of 100K. The X-ray diffraction have been collected at the SWISS LIGHT SOURCE (SLS, Villigen, Switzerland) using cryogenic conditions. Data were processed using the programs XDS and XSCALE. The phase information necessary to determine and analyze the structure was obtained by molecular replacement. Subsequent model building and refinement was performed with the software packages CCP4 and COOT. The peptide parameterization was carried out with the program [sequence].

T2 sequence (A2V9Z4 25-608 limits assumed): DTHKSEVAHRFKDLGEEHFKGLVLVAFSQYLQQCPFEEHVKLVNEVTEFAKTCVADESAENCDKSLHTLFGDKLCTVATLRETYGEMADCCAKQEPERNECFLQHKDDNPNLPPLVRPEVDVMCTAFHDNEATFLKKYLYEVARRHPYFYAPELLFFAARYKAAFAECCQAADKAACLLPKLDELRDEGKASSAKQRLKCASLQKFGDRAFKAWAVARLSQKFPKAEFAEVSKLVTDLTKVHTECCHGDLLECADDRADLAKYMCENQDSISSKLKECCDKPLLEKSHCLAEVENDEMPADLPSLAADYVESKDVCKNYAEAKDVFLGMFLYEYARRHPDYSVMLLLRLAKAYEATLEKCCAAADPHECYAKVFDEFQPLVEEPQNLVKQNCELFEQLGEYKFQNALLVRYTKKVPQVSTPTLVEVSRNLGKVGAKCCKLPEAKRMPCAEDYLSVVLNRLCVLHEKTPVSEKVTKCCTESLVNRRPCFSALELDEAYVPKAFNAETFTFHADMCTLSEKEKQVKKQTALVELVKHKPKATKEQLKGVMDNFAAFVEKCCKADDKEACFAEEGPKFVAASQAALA

As for AAPYRDYDVFGGGTPRGE [PMP56F2], the binding result with human serum albumin [1] is listed as “binds”.

B1: 2D3-9GS-56E4 (other)
chain: EVQLVESGGSLVQPGGSLRLSCAASGFTFDDYAMSWVRQVPGKGLEWVSSINWSGTHTDYADSVKGRFTISRNNANNTLYLQMNSLKSEDTAVYYCAKNWRDAGTTWFEKSGSAGQGTQVTVSSGGGGSGGGSRYWDYDVFGGGTPVGG
notes: untagged; Nanobody 2D3, 9GS linker, 56E4 without the two N-terminal alanines; also called 2D3-9GS-EXP56E4
Broadly, the Kd is the equilibrium constant for the complex coming apart. As usually defined, the kon is a measure of how fast the partners come together. In experiment [2], B1 registered a Kd of 495 nM and an association rate constant (kon) of 17100 M⁻¹ s⁻¹.

B2: 2D3-9GS-59C2 (other)
chain: EVQLVESGGSLVQPGGSLRLSCAASGFTFDDYAMSWVRQVPGKGLEWVSSINWSGTHTDYADSVKGRFTISRNNANNTLYLQMNSLKSEDTAVYYCAKNWRDAGTTWFEKSGSAGQGTQVTVSSGGGGSGGGSRDWDFDVFGGGTPVGG
notes: untagged; also called 2D3-9GS-EXP59C2; 2D3-EXP59C2
In experiment [2], B2 yielded a Kd of 276 nM and a kon of 8980 M⁻¹ s⁻¹. On to AASYSDYDVFGGGTDFGP [17D12], for which the binding result with human serum albumin [1] is “binds”.

As to AALYDDYDVFGGGTPVGG (also called 01C7; PMP26A3) [PMP56A3], in the experiment with human serum albumin [3], the “Ratio 1 µM/0 µM HSA” value was 0.47. For AALYDDYDVFGGGTPAGG [01B3], the “Ratio 1 µM/0 µM HSA” value with human serum albumin [3] amounted to 0.42. On the same count and under the same terms, as for AAFYDDYDVFGGGTPAGG (also called 01G7) [PMP56H5], the figure is 0.43. With AARDWDFDVFGGGTPVGG [59C2], the “Ratio 2 µM/0 µM HSA” value with human serum albumin [4] is 0.91. Consider AARYWDFDVFGGGTPVGG [59F2], for which the “Ratio 2 µM/0 µM HSA” value in the experiment with human serum albumin [4] was 0.69.

As for AARSWDFDVFGGGTPVGG [59H12], the “Ratio 2 µM/0 µM HSA” value in the experiment with human serum albumin [4] was determined as 0.87.

Consider AARYWDYDVFGGGTPVGG (also called EXP56E4) [PMP56E4], for which the “Ratio 2 µM/0 µM HSA” value in the experiment with human serum albumin [4] is 0.82.

B3: 12A2 sv1-AAA-12A2 sv1-9GS-59C2 (VHH)
chain: DVQLVESGGGLVQPGGSLRLSCAASGRTFSYNPMGWFRQAPGKGRELVAAISRTGGSTYYPESVEGRFTISRDNAKRTVYLQMNSLRAEDTAVYYCAAAGVRAEQGRVRTLPSEYTFWGQGTQVTVSSAAAEVQLVESGGGLVQPGGSLRLSCAASGRTFSYNPMGWFRQAPGKGRELVAAISRTGGSTYYPESVEGRFTISRDNAKRTVYLQMNSLRAEDTAVYYCAAAGVRAEQGRVRTLPSEYTFWGQGTQVTVSSGGGGSGGGSRDWDFDVFGGGTPVGG
notes: bivalent anti-vWF Nanobody with one C-terminal 59C2 peptide; also called vWF-0055; vWF 0055
For B3, the “IC50 (read off the curve)” value with von Willebrand factor is around 10 nM. In addition, the “fold decrease of affinity at pH5” value (with human serum albumin [5]; in experiment [6]) was around 10 fold in each case. In the case of AAYYYDYDVFGGGTPGGE [PMP56E2], the binding result with human serum albumin [1] was “binds”.

B4: 2D3-56H5 fusion protein (other)
chain: EVQLVESGGSLVQPGGSLRLSCAASGFTFDDYAMSWVRQVPGKGLEWVSSINWSGTHTDYADSVKGRFTISRNNANNTLYLQMNSLKSEDTAVYYCAKNWRDAGTTWFEKSGSAGQGTQVTVSSGGGGSGGGSAAAFYDDYDVFGGGTPAGGAAAEQKLISEEDLNGAAHHHHHH
The koff is the rate constant with which the complex falls apart. Regarding B4, in the experiment with human serum albumin [7], the dissociation constant (Kd) was around 1200 nM, the koff was determined as 0.0093 s⁻¹ and the kon amounted to 7570 M⁻¹ s⁻¹.

B5: peptide of SEQ ID NO: 143 (peptide)
peptide: AAARYWDYDVFGGGTPVGGAAA
notes: 56E4 with one additional N-terminal and three C-terminal alanines; used for the co-crystal with HSA; also called peptide based on EXP56E4
For B5, in the experiment with human serum albumin [8], the binding result is on record as “binds”.
